Where a chain is given by its changes, count along the chain named.
T1: His-SUMO CHC17 terminal domain (human, UniProt Q00610 1-364)
T1 sequence: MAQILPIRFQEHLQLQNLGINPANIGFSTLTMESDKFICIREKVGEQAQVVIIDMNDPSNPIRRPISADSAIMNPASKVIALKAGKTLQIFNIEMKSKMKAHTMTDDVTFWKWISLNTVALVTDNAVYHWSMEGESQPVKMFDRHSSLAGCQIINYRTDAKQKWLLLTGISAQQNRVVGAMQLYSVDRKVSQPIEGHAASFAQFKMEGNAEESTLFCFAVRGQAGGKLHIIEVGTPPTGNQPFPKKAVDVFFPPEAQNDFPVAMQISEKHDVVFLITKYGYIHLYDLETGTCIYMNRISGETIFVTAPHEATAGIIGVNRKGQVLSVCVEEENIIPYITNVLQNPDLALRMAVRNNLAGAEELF

T2: full-length GST-p115 (UniProt O60763 1-962)
T2 sequence: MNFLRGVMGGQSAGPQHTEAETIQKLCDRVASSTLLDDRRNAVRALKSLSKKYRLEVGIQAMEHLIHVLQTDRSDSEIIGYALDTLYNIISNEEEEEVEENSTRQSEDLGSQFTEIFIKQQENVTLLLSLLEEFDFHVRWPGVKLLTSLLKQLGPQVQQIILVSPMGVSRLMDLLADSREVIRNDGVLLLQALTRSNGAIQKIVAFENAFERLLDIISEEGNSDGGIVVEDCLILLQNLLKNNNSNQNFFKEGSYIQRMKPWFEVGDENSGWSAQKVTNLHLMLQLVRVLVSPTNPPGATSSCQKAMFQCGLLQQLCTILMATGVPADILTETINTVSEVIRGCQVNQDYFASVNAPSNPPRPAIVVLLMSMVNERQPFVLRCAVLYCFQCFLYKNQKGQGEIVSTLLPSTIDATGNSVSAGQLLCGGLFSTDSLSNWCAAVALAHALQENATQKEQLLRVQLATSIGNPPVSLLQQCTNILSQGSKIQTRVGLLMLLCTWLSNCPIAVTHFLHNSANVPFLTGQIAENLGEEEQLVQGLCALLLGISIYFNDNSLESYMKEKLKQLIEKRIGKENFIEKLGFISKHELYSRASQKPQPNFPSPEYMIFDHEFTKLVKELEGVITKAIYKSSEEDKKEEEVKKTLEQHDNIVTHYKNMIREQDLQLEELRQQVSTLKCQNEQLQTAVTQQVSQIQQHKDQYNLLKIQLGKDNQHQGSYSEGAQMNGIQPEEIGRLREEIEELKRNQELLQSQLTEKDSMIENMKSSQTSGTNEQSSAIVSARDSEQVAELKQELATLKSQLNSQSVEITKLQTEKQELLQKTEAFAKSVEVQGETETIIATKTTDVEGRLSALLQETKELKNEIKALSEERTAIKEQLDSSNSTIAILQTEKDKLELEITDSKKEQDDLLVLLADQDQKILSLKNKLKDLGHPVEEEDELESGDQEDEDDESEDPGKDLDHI

T3: full-length GST-SNX5 phosphomimetic S226E mutant (human, UniProt Q9Y5X3 1-404, S226E)
T3 sequence: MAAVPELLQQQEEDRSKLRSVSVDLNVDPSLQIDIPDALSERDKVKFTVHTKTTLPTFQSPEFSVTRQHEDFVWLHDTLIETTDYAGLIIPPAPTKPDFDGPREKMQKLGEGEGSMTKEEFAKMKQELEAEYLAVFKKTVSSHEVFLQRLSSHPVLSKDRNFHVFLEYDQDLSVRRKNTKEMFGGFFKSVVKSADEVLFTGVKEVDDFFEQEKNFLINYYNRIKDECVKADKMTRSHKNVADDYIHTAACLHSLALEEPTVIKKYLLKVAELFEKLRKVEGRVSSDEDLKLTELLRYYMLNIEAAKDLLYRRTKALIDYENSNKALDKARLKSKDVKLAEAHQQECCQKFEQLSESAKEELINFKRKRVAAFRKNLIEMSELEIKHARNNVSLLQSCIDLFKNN

T4: full-length His-p115 (UniProt O60763 1-962)
T4 sequence: T2 sequence

T5: His-tagged CHC22 Hub (human, UniProt P53675 1074-1640)
T5 sequence: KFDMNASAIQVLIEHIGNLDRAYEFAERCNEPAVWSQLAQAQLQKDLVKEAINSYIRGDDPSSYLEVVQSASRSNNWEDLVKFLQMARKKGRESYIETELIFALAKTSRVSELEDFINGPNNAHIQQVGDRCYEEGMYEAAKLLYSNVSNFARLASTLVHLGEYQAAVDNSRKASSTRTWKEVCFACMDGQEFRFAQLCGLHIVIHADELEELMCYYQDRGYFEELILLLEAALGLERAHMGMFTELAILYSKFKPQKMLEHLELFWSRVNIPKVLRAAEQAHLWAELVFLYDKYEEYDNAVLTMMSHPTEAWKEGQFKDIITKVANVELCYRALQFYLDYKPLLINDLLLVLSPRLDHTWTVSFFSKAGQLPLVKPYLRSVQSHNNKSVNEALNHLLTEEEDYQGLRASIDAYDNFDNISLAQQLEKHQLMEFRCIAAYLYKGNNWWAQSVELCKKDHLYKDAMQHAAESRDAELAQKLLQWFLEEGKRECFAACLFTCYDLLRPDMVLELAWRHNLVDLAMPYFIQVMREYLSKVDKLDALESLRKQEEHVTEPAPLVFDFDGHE

B1: GST-GGA2-HE (domain or fragment)
chain: GRVTFGNRVTSSLGDIPVSRVFQNPAGCMKTCPLIDLEVDNGPAQMGTVVPSLLHQDLAALGISDAPVTGMVSGQNCCEEKRNPSSSTLPGGGVQNPSADRNLLDLLSAQPAPCPLNYVSQKSVPKEVPPGTKSSPGWSWEAGPLAPSPSSQNTPLAQVFVPLESVKPSSLPPLIVYDRNGFRILLHFSQTGAPGHPEVQVLLLTMMSTAPQPVWDIMFQVAVPKSMRVKLQPASSSKLPAFSPLMPPAVISQMLLLDNPHKEPIRLRYKLTFNQGGQPFSEVGEVKDFPDLAVLGAA
B2: His-SUMO-tagged CHC22 terminal domain (domain or fragment)
chain: MAQILPVRFQEHFQLQNLGINPANIGFSTLTMESDKFICIREKVGEQAQVTIIDMSDPMAPIRRPISAESAIMNPASKVIALKAGKTLQIFNIEMKSKMKAHTMAEEVIFWKWVSVNTVALVTETAVYHWSMEGDSQPMKMFDRHTSLVGCQVIHYRTDEYQKWLLLVGISAQQNRVVGAMQLYSVDRKVSQPIEGHAAAFAEFKMEGNAKPATLFCFAVRNPTGGKLHIIEVGQPAAGNQPFVKKAVDVFFPPEAQNDFPVAMQIGAKHGVIYLITKYGYLHLYDLESGVCICMNRISADTIFVTAPHKPTSGIIGVNKKGQVLSVCVEEDNIVNYATNVLQNPDLGLRLAVRSNLAGAEKLF
B3: His-tagged CHC22 TxD (domain or fragment)
chain: WAQSVELCKKDHLYKDAMQHAAESRDAELAQKLLQWFLEEGKRECFAACLFTCYDLLRPDMVLELAWRHNLVDLAMPYFIQVMREYLSKVDKLDALESLRKQEEHVTEPAPLVFDFDGHE
B4: full-length GST-SNX5 (natural protein)
chain: T3 sequence with E226S

Experiments:
Test in all cases: pull-down
[1] = target: B2
[2] = target: T1, His-SUMO CHC17 terminal domain
full-length GST-p115 = target: T2, full-length GST-p115
full-length GST-SNX5 = target: B4
[3] = target: T3, full-length GST-SNX5 phosphomimetic …
[4] = target: full-length His-tagged SNX1 (UniProt Q13596 1-522)
Chain of full-length His-tagged SNX1 (Q13596 whole entry): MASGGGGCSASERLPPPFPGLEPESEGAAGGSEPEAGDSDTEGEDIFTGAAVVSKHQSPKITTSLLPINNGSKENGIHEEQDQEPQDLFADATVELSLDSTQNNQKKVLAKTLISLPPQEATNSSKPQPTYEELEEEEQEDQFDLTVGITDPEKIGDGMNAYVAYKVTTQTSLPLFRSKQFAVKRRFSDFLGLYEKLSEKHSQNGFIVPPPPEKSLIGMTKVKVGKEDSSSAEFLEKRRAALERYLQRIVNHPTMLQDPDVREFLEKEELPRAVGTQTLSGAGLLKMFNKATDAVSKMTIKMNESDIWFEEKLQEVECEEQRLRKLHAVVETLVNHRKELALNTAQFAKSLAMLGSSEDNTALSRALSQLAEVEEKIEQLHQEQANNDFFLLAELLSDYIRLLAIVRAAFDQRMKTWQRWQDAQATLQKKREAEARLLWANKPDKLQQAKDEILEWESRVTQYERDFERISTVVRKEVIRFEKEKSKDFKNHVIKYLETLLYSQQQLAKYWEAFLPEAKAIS

full-length His-p115 = target: T4, full-length His-p115
His-tagged CHC22 Hub = target: T5, His-tagged CHC22 Hub

B1: binds [1]; binds [2].

B2: binds (full-length GST-p115).

B3: binds (full-length GST-SNX5); binds [3].

B4: binds [4]; binds (full-length His-p115); binds (His-tagged CHC22 Hub).

Reference: paper doi:10.1101/2022.12.21.520923 (bioRxiv, 2022)
